Consider eight molecules from patent US20060204492A1 (published 2006).

Test [1] concerns the target integrin αvβ3 on cells (M21 human melanoma cells; human umbilical vein endothelial cells) (human) (UniProt P06756). Nature of the test: cell-based or functional assay.
Test [2] has as its target T1, integrin αvβ3, purified from human placenta (human, UniProt P06756 31-1048; P05106 27-788).
T1 construct: mature; Native heterodimer, immobilized on ELISA plates or on the BIAcore chip; biotinylated in capture lift and capture ELISA screens; also called αvβ3 receptor; vitronectin receptor
Put plainly: ELISA titration of Fab on immobilized αvβ3.
Method: (§1) Just prior to use, the plates were washed two times and were then incubated 1 h at 25° C. with various dilutions of Fab. […] All dilutions and washes were in 50 mM Tris-HCl, pH 7.4, 100 mM NaCl, 2 mM CaCl₂, and 1 mM MgCl₂.

For test [3], the target named is T1, integrin αvβ3, purified from human …. Nature of the test: SPR (BIAcore), purified Fab over immobilized αvβ3.
Method: The affinities of select variants were further characterized by utilizing surface plasmon resonance (BIAcore) to measure the association and dissociation rates of purified Fab with immobilized αᵥβ₃. […] To obtain association rate constants (kₒₙ), the binding rate at five different Fab concentrations, ranging from 5-40 μg/ml in 50 mM Tris-HCl, pH 7.4, 100 mM NaCl, 2 mM CaCl₂, and 1 mM MgCl₂, was determined at a flow rate of 10 μl/min. Dissociation rate constants (koff) were the average of five measurements obtained by analyzing the dissociation phase at an increased flow rate (40 μl/min). Sensorgrams were analyzed with the BIAevaluation 2.1 program (Pharmacia). Residual Fab was removed after each measurement with 10 mM HCl, 2 mM CaCl₂ and 1 mM MgCl₂.
The target is the same in test [4]. Put plainly: SPR (BIAcore), purified Fab over immobilized αvβ3. The source holds these as a separate data set. Background: In SPR one partner is held on a chip, and binding of the other changes the refractive index at the surface.
Test [5] shares this target. Put plainly: ELISA titration of bacterial lysate Fab on immobilized αvβ3, inflection points. A general note: An ELISA detects its analyte on a solid surface through an enzyme-linked reagent.
Method: as §1
The target of a further test is T2, integrin αvβ5 (human, UniProt P06756 31-1048; P18084 24-799).
T2 construct: mature
T2 sequence (P06756 31-1048, chain 1 of 2): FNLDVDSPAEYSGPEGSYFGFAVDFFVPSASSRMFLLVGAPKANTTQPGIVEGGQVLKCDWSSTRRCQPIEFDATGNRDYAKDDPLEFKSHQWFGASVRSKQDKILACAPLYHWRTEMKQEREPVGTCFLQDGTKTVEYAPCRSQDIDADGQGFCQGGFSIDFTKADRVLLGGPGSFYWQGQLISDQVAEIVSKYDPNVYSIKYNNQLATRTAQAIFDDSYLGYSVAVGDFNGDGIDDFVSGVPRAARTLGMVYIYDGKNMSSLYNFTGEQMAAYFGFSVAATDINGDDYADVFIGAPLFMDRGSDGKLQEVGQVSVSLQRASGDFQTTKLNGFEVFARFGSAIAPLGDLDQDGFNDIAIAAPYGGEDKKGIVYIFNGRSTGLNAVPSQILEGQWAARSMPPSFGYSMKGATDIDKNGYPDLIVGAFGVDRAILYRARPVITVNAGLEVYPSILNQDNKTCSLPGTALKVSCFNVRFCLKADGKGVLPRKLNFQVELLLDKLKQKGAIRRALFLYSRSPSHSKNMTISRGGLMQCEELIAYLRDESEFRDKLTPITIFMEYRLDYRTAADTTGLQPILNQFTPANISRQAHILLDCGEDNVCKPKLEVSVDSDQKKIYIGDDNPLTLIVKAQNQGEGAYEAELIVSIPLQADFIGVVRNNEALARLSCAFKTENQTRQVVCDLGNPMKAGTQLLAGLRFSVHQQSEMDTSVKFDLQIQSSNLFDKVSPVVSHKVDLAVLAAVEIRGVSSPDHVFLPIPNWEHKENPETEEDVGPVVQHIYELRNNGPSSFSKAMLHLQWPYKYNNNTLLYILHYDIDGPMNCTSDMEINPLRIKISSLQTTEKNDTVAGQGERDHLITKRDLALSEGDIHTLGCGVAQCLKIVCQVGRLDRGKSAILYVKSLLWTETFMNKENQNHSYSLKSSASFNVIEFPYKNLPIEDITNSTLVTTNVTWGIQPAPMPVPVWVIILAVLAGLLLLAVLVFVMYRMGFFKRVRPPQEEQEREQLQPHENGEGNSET
T2 sequence (P18084 24-799, chain 2 of 2): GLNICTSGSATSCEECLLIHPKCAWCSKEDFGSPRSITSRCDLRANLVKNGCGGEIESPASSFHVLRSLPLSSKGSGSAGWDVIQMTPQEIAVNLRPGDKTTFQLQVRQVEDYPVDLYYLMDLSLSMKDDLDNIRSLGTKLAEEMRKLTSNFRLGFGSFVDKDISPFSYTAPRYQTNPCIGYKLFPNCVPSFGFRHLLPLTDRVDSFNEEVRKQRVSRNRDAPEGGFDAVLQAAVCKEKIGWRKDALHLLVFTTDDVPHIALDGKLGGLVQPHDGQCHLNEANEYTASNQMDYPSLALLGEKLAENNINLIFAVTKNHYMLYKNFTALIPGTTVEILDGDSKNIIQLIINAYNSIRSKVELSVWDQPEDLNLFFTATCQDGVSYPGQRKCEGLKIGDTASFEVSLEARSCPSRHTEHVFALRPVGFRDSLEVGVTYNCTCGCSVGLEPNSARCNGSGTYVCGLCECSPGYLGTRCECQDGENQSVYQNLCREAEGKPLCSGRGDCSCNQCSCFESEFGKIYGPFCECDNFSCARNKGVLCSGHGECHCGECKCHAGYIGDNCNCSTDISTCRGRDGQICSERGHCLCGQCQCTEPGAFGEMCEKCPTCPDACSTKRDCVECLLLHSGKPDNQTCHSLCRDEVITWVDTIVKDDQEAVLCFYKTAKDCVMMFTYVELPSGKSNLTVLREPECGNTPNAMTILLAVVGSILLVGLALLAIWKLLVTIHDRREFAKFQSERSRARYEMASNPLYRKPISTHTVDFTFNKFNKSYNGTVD
Nature of the test: ELISA on coated integrin, goat anti-human IgG-alkaline phosphatase.

T1 sequence (P06756 31-1048, form in doubt, chain 1 of 2): as the sequence (P06756 31-1048, chain 1 of 2) above
T1 sequence (P05106 27-788, form in doubt, chain 2 of 2): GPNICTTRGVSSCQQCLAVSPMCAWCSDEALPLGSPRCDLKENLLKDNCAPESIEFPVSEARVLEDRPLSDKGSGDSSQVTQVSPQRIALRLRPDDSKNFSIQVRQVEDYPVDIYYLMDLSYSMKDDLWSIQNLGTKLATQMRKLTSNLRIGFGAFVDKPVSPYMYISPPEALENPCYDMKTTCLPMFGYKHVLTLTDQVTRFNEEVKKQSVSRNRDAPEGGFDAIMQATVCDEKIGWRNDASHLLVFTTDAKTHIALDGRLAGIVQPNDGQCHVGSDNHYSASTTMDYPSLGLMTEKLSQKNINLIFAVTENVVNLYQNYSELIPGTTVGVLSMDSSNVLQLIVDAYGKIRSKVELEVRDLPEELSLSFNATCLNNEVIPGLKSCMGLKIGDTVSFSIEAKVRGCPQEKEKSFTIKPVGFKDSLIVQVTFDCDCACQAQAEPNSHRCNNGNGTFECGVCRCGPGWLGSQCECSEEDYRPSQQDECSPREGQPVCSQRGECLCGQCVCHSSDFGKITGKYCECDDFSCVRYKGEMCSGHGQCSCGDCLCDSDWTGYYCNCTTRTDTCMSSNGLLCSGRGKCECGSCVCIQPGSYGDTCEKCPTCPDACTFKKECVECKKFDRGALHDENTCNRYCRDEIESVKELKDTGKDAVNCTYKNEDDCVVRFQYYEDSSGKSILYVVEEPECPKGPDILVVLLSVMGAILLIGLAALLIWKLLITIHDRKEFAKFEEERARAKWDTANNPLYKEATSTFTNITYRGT
Chain of integrin αvβ3 on cells (M21 human melanoma cells; human umbilical vein endothelial cells) (human) (P06756 31-1048, chain 1 of 2): as the sequence (P06756 31-1048, chain 1 of 2) above
Chain of integrin αvβ3 on cells (M21 human melanoma cells; human umbilical vein endothelial cells) (human) (P05106 27-788, chain 2 of 2, further chain): as the sequence (P05106 27-788, form in doubt, chain 2 of 2) above
Method for integrin αvβ5: Antibody binding activity was assessed by ELISA using a goat anti-human IgG-alkaline phosphatase conjugate.

Turning to monoclonal antibody LM609, in test [1], the inhibition of M21 cell adhesion to fibrinogen: inhibitory concentration for 50% maximal adhesion came to 50 ng/mL and the inhibition of vitronectin-induced migration of human umbilical vein endothelial cells (transwell), 5 µg/ml antibody came out at 60%.

B1: LM609 grafted antibody variant F32 (Fab, V domains shown)
VH: QVQLVESGGGVVQPGRSLRLSCAASGFTFSSYDMSWVRQAPGKGLEWVAKVSSGGGSTYYLDTVQGRFTISRDNSKNTLYLQMNSLRAEDTAVYYCARHNYGSFAYWGQGTTVTVSS
VL: EIVLTQSPATLSLSPGERATLSCQASQSISNFLHWYQQRPGQAPRLLIRYRSQSISGIPARFSGSGSGTDFTLTISSLEPEDFAVYYCQQSGSWPHTFGGGTKVEIK
notes: Fab
Broadly, the Kd is the equilibrium constant for the complex coming apart. Low values mean tighter binding, high ones weaker binding. The term koff denotes a measure of how fast the partners let go of each other. Lower therefore signals a long-lived complex. The term kon denotes a measure of how fast the partners come together. The low end stands for slower complex formation, the high end for faster complex formation. Regarding B1, the “fold enhanced binding over parent LM609 grafted antibody” value (“fold enhanced binding” below) in test [2] was above 3 fold. In test [3], this molecule came in with a Kd of 2.5 nM, a koff of 0.00042 s⁻¹ and a kon of 167000 M⁻¹ s⁻¹. The “fold slower dissociation than LM609 grafted antibody” value in test [4] was determined as 11.8 fold.

B2: LM609 grafted antibody variant Y101 (Fab, V domains shown)
VH: QVQLVESGGGVVQPGRSLRLSCAASGFTFSSYDMSWVRQAPGKGLEWVAKVSSGGGSTYYLDTVQGRFTISRDNSKNTLYLQMNSLRAEDTAVYYCARHNYGSFYYWGQGTTVTVSS
VL: EIVLTQSPATLSLSPGERATLSCQASQSISNHLHWYQQRPGQAPRLLIRYRSQSISGIPARFSGSGSGTDFTLTISSLEPEDFAVYYCQQSGSWPHTFGGGTKVEIK
notes: Fab
Regarding B2, the “fold improved affinity over LM609 grafted antibody” value (shortened to “fold improved affinity”) in test [5] is above 3 fold. Further, the “fold enhanced binding” value in test [2] is above 3 fold. In test [3], this molecule had a Kd of 2.2 nM, a koff of 0.00048 s⁻¹ and a kon of 218000 M⁻¹ s⁻¹. The “fold increase in affinity over parent LM609 grafted antibody” value in test [4] came to 12.5 fold.

B3: LM609 grafted antibody variant S102 (Fab, V domains shown)
VH: QVQLVESGGGVVQPGRSLRLSCAASGFTFSSYDMSWVRQAPGKGLEWVAKVSSGGGSTYYLDTVQGRFTISRDNSKNTLYLQMNSLRAEDTAVYYCARHNYGSFASWGQGTTVTVSS
VL: EIVLTQSPATLSLSPGERATLSCQASQSISNHLHWYQQRPGQAPRLLIRYRSQSISGIPARFSGSGSGTDFTLTISSLEPEDFAVYYCQQSGSWPHTFGGGTKVEIK
notes: Fab; also called clone S102
For the molecule B3, the “fold improved affinity” value in test [5] was above 3 fold. The “fold enhanced binding” value in test [2] is above 3 fold. In test [3], binding was put at a Kd of 6 nM, the koff turned out to be 0.00144 s⁻¹ and the kon came out at 242000 M⁻¹ s⁻¹. Further, the “fold higher affinity than LM609 grafted antibody” value in test [4] was 4.6 fold.

B4: LM609 grafted antibody variant Y100 (Fab, V domains shown)
VH: QVQLVESGGGVVQPGRSLRLSCAASGFTFSSYDMSWVRQAPGKGLEWVAKVSSGGGSTYYLDTVQGRFTISRDNSKNTLYLQMNSLRAEDTAVYYCARHNYGSYAYWGQGTTVTVSS
VL: EIVLTQSPATLSLSPGERATLSCQASQSISNHLHWYQQRPGQAPRLLIRYRSQSISGIPARFSGSGSGTDFTLTISSLEPEDFAVYYCQQSGSWPHTFGGGTKVEIK
notes: Fab
B4: the “fold improved affinity” value in test [5] is above 3 fold. The “fold enhanced binding” value in test [2] is above 3 fold. In test [3], this molecule returned a Kd of 14.3 nM, a koff of 0.00251 s⁻¹ and a kon of 175000 M⁻¹ s⁻¹.

B5: LM609 grafted antibody variant H97 (Fab, V domains shown)
VH: QVQLVESGGGVVQPGRSLRLSCAASGFTFSSYDMSWVRQAPGKGLEWVAKVSSGGGSTYYLDTVQGRFTISRDNSKNTLYLQMNSLRAEDTAVYYCARHNHGSFAYWGQGTTVTVSS
VL: EIVLTQSPATLSLSPGERATLSCQASQSISNHLHWYQQRPGQAPRLLIRYRSQSISGIPARFSGSGSGTDFTLTISSLEPEDFAVYYCQQSGSWPHTFGGGTKVEIK
notes: Fab
In the case of B5, the “fold enhanced binding” value in test [2] was above 3 fold. In test [3], this molecule displayed a Kd of 13.8 nM, a koff of 0.00303 s⁻¹ and a kon of 220000 M⁻¹ s⁻¹. For the same molecule, the “fold slower dissociation than LM609 grafted antibody” value in test [4] is 1.6 fold.

B6: LM609 grafted antibody variant G102 (Fab, V domains shown)
VH: QVQLVESGGGVVQPGRSLRLSCAASGFTFSSYDMSWVRQAPGKGLEWVAKVSSGGGSTYYLDTVQGRFTISRDNSKNTLYLQMNSLRAEDTAVYYCARHNYGSFAGWGQGTTVTVSS
VL: EIVLTQSPATLSLSPGERATLSCQASQSISNHLHWYQQRPGQAPRLLIRYRSQSISGIPARFSGSGSGTDFTLTISSLEPEDFAVYYCQQSGSWPHTFGGGTKVEIK
notes: Fab; also called clone G102
As to B6, the “fold enhanced binding” value in test [2] is above 3 fold. Besides, in test [3], the Kd came to 12.5 nM, the koff was 0.00201 s⁻¹ and the kon amounted to 161000 M⁻¹ s⁻¹. For the same molecule, the “fold enhanced affinity over LM609 grafted antibody” value in test [4] is 2.2 fold.

B7: Vitaxin (antibody, human IgG1, V domains shown)
VH: QVQLVESGGGVVQPGRSLRLSCAASGFTFSSYDMSWVRQAPGKGLEWVAKVSSGGGSTYYLDTVQGRFTISRDNSKNTLYLQMNSLRAEDTAVYYCARHNYGSFAYWGQGTTVTVSS
VL: EIVLTQSPATLSLSPGERATLSCQASQSISNHLHWYQQRPGQAPRLLIKYRSQSISGIPARFSGSGSGTDFTLTISSLEPEDFAVYYCQQSGSWPHTFGGGTKVEIK
notes: Human IgG1 constant region and human kappa constant region; also called huLM609M13 1135-4; grafted LM609
With B7, in the test with integrin αvβ5, the binding result was “no binding (tested: over 1.0 mg/ml)”.
